These results are taken from article doi:10.1101/2023.06.21.546012 (bioRxiv, 2023).

T1: Tom40 (S. cerevisiae (endogenous in the …, UniProt P23644 1-387))
T1 sequence: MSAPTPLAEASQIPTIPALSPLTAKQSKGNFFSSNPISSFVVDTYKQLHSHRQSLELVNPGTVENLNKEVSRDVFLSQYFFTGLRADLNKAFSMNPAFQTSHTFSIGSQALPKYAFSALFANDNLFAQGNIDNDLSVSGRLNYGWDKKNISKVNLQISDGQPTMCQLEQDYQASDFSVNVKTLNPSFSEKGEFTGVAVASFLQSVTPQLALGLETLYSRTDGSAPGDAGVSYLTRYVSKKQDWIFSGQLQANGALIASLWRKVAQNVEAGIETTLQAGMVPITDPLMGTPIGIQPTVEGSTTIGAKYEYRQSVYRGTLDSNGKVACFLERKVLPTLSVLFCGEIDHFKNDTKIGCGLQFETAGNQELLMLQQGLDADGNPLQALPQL

B1: Tom22 with a C-terminal His10 tag (natural protein)
chain: MVELTEIKDDVVQLDEPQFSRNQAIVEEKASATNNDVVDDEDDSDSDFEDEFDENETLLDRIVALKDIVPPGKRQTISNFFGFTSSFVRNAFTKSGNLAWTLTTTALLLGVPLSLSILAEQQLIEMEKTFDLQSDANNILAQGEKDAAATAN
B2: Tom6 (natural protein)
chain: MDGMFAMPGAAAGAASPQQPKSRFQAFKESPLYTIALNGAFFVAGVAFIQSPLMDMLAPQL
B3: Tom7 (natural protein)
chain: MSFLPSFILSDESKERISKILTLTHNVAHYGWIPFVLYLGWAHTSNRPNFLNLLSPLPSV

In this assay the target is T1, Tom40. In words: cryo-EM structure.
As for B1, the binding result is listed as “binds”. To B2 belongs “binds”; to MFGLPQQEVSEEEKRAHQEQTEKTLKQAAYVAAFLWVSPMIWHLVKKQWK (natural protein) [Tom5], “binds”; to B3, “binds”.
